This data set deals with 3H-histones isolated from murine erythroleukemia cells.

B1: HDAC9a-FLAG (C-terminal FLAG-tagged HDAC9a, expressed from pFLAG-CMV-5b-HDAC9a, plasmid VR2) (protein)
chain: MHSMISSVDVKSEVPVGLEPISPLDLRTDLRMMMPVVDPVVREKQLQQELLLIQQQQQIQKQLLIAEFQKQHENLTRQHQAQLQEHIKELLAIKQQQELLEKEQKLEQQRQEQEVERHRREQQLPPLRGKDRGRERAVASTEVKQKLQEFLLSKSATKDTPTNGKNHSVSRHPKLWYTAAHHTSLDQSSPPLSGTSPSYKYTLPGAQDAKDDFPLRKTASEPNLKVRSRLKQKVAERRSSPLLRRKDGNVVTSFKKRMFEVTESSVSSSSPGSGPSSPNNGPTGSVTENETSVLPPTPHAEQMVSQQRILIHEDSMNLLSLYTSPSLPNITLGLPAVPSQLNASNSLKEKQKCETQTLRQGVPLPGQYGGSIPASSSHPHVTLEGKPPNSSHQALLQHLLLKEQMRQQKLLVAGGVPLHPQSPLATKERISPGIRGTHKLPRHRPLNRTQSAPLPQSTLAQLVIQQQHQQFLEKQKQYQQQIHMNKLLSKSIEQLKQPGSHLEEAEEELQGDQAMQEDRAPSSGNSTRSDSSACVDDTLGQVGAVKVKEEPVDSDEDAQIQEMESGEQAAFMQQPFLEPTHTRALSVRQAPLAAVGMDGLEKHRLVSRTHSSPAASVLPHPAMDRPLQPGSATGIAYDPLMLKHQCVCGNSTTHPEHAGRIQSIWSRLQETGLLNKCERIQGRKASLEEIQLVHSEHHSLLYGTNPLDGQKLDPRILLGDDSQKFFSSLPCGGLGVDSDTIWNELHSSGAARMAVGCVIELASKVASGELKNGFAVVRPPGHHAEESTAMGFCFFNSVAITAKYLRDQLNISKILIVDLDVHHGNGTQQAFYADPSILYISLHRYDEGNFFPGSGAPNEVRFISLEPHFYLYLSGNCIA
For B1, the “HDAC enzymatic activity (3H-acetic acid released from 3H-histones)” value is on record as “HDAC9a-FLAG deacetylated 3H-acetyl-histones”.

For the origin of these results see US20030059812.
